Results as given in patent publication US20220226381A1.
Where two headings read alike, the source gives them in different places.

Legend:
[1] = target: CD19 on CD19+ Raji B cells (UniProt P15391); experiment: cell-based or functional assay
[2] = target: CD19 on CD19+ Raji B cells (UniProt P15391); experiment: cell-based or functional assay; remark: listed apart in the source

Chain of UniProt P15391 (P15391 20-556 limits assumed): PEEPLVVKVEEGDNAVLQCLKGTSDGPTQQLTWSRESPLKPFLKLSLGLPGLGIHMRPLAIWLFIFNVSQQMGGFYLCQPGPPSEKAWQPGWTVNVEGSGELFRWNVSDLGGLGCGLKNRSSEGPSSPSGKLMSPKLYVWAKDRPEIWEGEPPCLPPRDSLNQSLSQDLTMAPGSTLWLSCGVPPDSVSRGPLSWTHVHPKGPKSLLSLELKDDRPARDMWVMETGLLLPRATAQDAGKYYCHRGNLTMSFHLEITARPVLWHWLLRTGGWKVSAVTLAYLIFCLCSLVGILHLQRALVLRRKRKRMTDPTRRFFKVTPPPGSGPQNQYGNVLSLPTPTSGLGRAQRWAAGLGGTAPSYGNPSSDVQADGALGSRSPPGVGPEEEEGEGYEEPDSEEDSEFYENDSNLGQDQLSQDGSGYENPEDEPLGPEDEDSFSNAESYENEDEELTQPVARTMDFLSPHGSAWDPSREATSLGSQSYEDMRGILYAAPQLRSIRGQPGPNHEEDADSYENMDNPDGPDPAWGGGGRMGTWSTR

change in activated cells in the population (CD25 and CD69 staining, flow cytometry, 24 h co-culture) [1]: 0.9 to 84.8%
change in activated cells in the population (CD25 and CD69 staining, flow cytometry, 24 h co-culture) [2]: 3.9 to 12.1%
Substance: anti-CD19 CAR (anti-CD19 CAR cassette as described in WO 2012/079000), expressed on transduced CD4+ T-cells
